Measurements as given in doi:10.1101/2024.11.06.622243, “The MRAP2 accessory protein directly interacts with melanocortin-3 receptor to enhance signaling” (bioRxiv, 2024).

Columns and labels:
[1] = biological target: the molecule itself; test: single-molecule pull-down (SiMPull); one-colour SiMPull with photobleaching step analysis: HA-Halo-tagged protein labelled on HEK293 cells with membrane-impermeable CA-Sulfo646, lysed in 0.5% LMNG/0.05% CHS, immobilised by biotinylated anti-HA antibody on a PEG-passivated slide, TIRF imaging
[2] = biological target: T1, HA-Halo-MC3R (melanocortin-3 receptor) (human, UniProt P41968 1-323, CA-Sulfo646 dye on the Halo tag); test: single-molecule pull-down (SiMPull); two-colour SiMPull: HA-Halo-tagged bait (CA-Sulfo646) and FLAG-CLIP-tagged prey (BC-DY547) co-expressed in HEK293 cells (300 ng Halo and 600 ng CLIP plasmid), labelled before lysis in 0.5% LMNG/0.05% CHS, bait immobilised by biotinylated anti-HA antibody, co-localisation and photobleaching steps by TIRF; settings: partners not purified
T1 construct: human melanocortin-3 receptor (MC3R); pRK5 construct with an N-terminal signal peptide from rat mGluR2 before the HA and Halo tags; also called ss-HA-Halo-MC3R; source: HEK293, transiently transfected, in lysate (LMNG-CHS); not shown: HA, N-terminal, kept; Halo, N-terminal, kept
T1 sequence (P41968 whole entry): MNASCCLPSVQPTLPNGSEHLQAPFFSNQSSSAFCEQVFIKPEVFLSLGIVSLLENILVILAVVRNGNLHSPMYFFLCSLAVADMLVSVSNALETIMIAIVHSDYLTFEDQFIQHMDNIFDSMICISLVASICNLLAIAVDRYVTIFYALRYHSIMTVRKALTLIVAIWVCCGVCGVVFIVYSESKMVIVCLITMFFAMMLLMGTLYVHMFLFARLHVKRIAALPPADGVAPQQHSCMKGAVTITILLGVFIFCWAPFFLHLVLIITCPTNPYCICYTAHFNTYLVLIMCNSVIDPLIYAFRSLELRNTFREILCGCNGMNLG

Binder	stoichiometry N [1]	stoichiometry N [2]
mGluR2 (receptor, UniProt P31421 19-872, looked up, metabotropic glutamate receptor 2 (mGluR2), control of the SiMPull photobleaching analysis; also called known dimeric GPCR mGluR2; source: HEK293, transfected, in lysate) EGPAKKVLTLEGDLVLGGLFPVHQKGGPAEECGPVNEHRGIQRLEAMLFALDRINRDPHLLPGVRLGAHILDSCSKDTHALEQALDFVRASLSRGADGSRHICPDGSYATHSDAPTAVTGVIGGSYSDVSIQVANLLRLFQIPQISYASTSAKLSDKSRYDYFARTVPPDFFQAKAMAEILRFFNWTYVSTVASEGDYGETGIEAFELEARARNICVATSEKVGRAMSRAAFEGVVRALLQKPSARVAVLFTRSEDARELLAATQRLNASFTWVASDGWGALESVVAGSERAAEGAITIELASYPISDFASYFQSLDPWNNSRNPWFREFWEERFHCSFRQRDCAAHSLRAVPFEQESKIMFVVNAVYAMAHALHNMHRALCPNTTHLCDAMRPVNGRRLYKDFVLNVKFDAPFRPADTDDEVRFDRFGDGIGRYNIFTYLRAGSGRYRYQKVGYWAEGLTLDTSFIPWASPSAGPLPASRCSEPCLQNEVKSVQPGEVCCWLCIPCQPYEYRLDEFTCADCGLGYWPNASLTGCFELPQEYIRWGDAWAVGPVTIACLGALATLFVLGVFVRHNATPVVKASGRELCYILLGGVFLCYCMTFVFIAKPSTAVCTLRRLGLGTAFSVCYSALLTKTNRIARIFGGAREGAQRPRFISPASQVAICLALISGQLLIVAAWLVVEAPGTGKETAPERREVVTLRCNHRDASMLGSLAYNVLLIALCTLYAFKTRKCPENFNEAKFIGFTMYTTCIIWLAFLPIFYVTSSDYRVQTTTMCVSVSLSGSVVLGCLFAPKLHIILFQPQKNVVSHRAPTSRFGSAAPRASANLGQGSGSQFVPTVCNGREVVDSTTSSL	2	–
FLAG-CLIP-MRAP2 (melanocortin-2 receptor accessory protein-2) (natural protein, human, UniProt Q96G30 1-205, looked up, BC-DY547 dye on the CLIP tag, human melanocortin-2 receptor accessory protein 2 (MRAP2); pRK5 construct with an N-terminal signal peptide from rat mGluR2 before the tags; also called ss-FLAG-CLIP-MRAP2; source: HEK293, transiently transfected, in lysate (LMNG-CHS); not shown: FLAG, N-terminal, kept; CLIP, N-terminal, kept) MSAQRLISNRTSQQSASNSDYTWEYEYYEIGPVSFEGLKAHKYSIVIGFWVGLAVFVIFMFFVLTLLTKTGAPHQDNAESSEKRFRMNSFVSDFGRPLEPDKVFSRQGNEESRSLFHCYINEVERLDRAKACHQTTALDSDVQLQEAIRSSGQPEEELNRLMKFDIPNFVNTDQNYFGEDDLLISEPPIVLETKPLSQTSHKDLD	–	1 MRAP2 per MC3R
